Test results as given in article PMC3961690.
Values joined by “and” are separate entries in the source; they are usually repeats but may differ in a detail not shown here. Identical values can stand only once. Like-named read-outs stand apart in the source and are kept apart here.

Experiments:
Asp455 = Asp455 (UniProt position 474, KPVMLDLYADW); assay: NMR; conditions: 298 K, isolated domain, folded
Cys69 = Cys69 (UniProt position 69, FGDYKCPSCKV); conditions: cited from earlier work
Cys30 = Cys30 (UniProt position 49, FFSFFCPHCYQ); conditions: cited from earlier work
Asp26 = Asp26 (UniProt position 26, KLVVVDFSATW); conditions: cited from earlier work
Cys32 = Cys32 (UniProt position 32, FSATWCGPCKM); conditions: reduced human thioredoxin; cited from earlier work
Cys461 = Cys461 (UniProt position 480, LYADWCVACKE); assay: NMR; conditions: 298 K, isolated domain, folded
[1] = not stated, 1 mM protein, oxidised (Cys-461-Cys-464 disulfide)
[2] = oxidised (Cys-461-Cys-464 disulfide)
[3] = not stated, 1 mM protein, reduced (dithiol)

For “DsbD C-terminal domain, Q488A variant (Q488A-cDsbD) (Escherichia coli; Q488A)”, the pKa (Asp455; [1]) was 7.7 and 7.5 and the pKa (Asp455; [2]) was 8.0 ± 0.3.

For “Disulfide bond formation protein D (BdbD) (Bacillus subtilis)”, the pKa (Cys69) is listed as “less than 4.5”.

For “Thiol:disulfide interchange protein DsbA (Escherichia coli)”, the pKa (Cys30) is listed as 3.5.

In the case of “Thioredoxin (Trx1), human (Homo sapiens)”, the pKa (Asp26; oxidised human thioredoxin) is given as 8.1, the pKa (Asp26; reduced human thioredoxin) is given as 9.9 and the pKa (Cys32) is given as 6.3.

With “DsbD C-terminal domain, Q488K variant (Q488K-cDsbD) (Escherichia coli; Q488K)” the pKa (Asp455; [1]) was 8.0, the pKa (Asp455; [3]) was 7.2 and 7.1 and the pKa (Asp455; [2]) was 8.1 ± 0.2. For the same substance, the pKa (Asp455; reduced (dithiol)) was 7.5 ± 0.4, the pKa (Cys461; not stated (pH adjusted with 0.1 M DCl or NaOD), 1 mM protein, reduced (Cys-461/Cys-464 dithiol)) was 10.3 and 10.5 and 10.4 and the pKa (Cys461; [3]) was 10.9. The pKa (Cys461; reduced (dithiol)) was 10.5 ± 0.2.
